Molecular target: VEGF (Homo sapiens, UniProt P15692-4 P15692-4:27-191)
Assay: EMSA; 1:1 molar ratio, 3 h, room temperature, 100 mM phosphate neutral pH, 10% TBE gel; high MW complex band; confirmed by HPLC-SEC at 552 nm (FIG. 33)
Settings: chain copies: 2; label: 5' Cy3
Description: The biological activity and therapeutic action of the anti-VEGF aptamer resides in its binding to its target: human recombinant VEGF. Without access to a growth factor, some cells will not be able to proliferate or survive; thus, these molecules are drug targets. Some drugs or drug candidates operate by binding to a growth factor; these molecules can be in the antibody (naturally produced or synthetically constructed) or the apatamer (nucleic acids) classes (e.g., any binding partner in theory). […] A shift mobility assay, using a 10% TBE gel, was used in order to assess the binding of HEP-aptamer to target (FIG. 32). […] As negative and positive control, VEGF was respectively incubated in the presence of heparosan (HEP) or heparin (i.e., VEGF is known to react with heparin and heparan sulfate).

Sequence of VEGF (P15692 other isoform, or with tags, fused parts or gaps): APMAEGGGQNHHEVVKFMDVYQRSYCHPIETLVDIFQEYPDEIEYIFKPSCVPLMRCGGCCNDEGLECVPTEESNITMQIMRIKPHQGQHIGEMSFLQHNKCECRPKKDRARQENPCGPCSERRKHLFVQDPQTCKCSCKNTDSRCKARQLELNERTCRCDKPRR

ACCCGTCTTCCAGACAAGAGTGCAGGGTT (ssDNA, 3' C6 thiol coupled to heparosan (38.8- or 60-kDa chain)) [HEP-anti-VEGF DNA aptamer]: binds.
